By stoichiometry N is commonly meant a count of units in the complex or per binding partner.

Five molecules from paper PMC11074299, “Deciphering DED assembly mechanisms in FADD-procaspase-8-cFLIP complexes regulating apoptosis” (Nature Communications, 2024) can be followed below.

To fix the notation:
B3: full-length Casp-8 mutant F122G/L123G/C360A/D374A/D384A (natural protein, human, UniProt Q14790 1-479, looked up)
chain: MDFSRNLYDIGEQLDSEDLASLKFLSLDYIPQRKQEPIKDALMLFQRLQEKRMLEESNLSFLKELLFRINRLDLLITYLNTRKEEMERELQTPGRAQISAYRVMLYQISEEVSRSELRSFKGGLQEEISKCKLDDDMNLLDIFIEMEKRVILGEGKLDILKRVCAQINKSLLKIINDYEEFSKERSSSLEGSPDEFSNGEELCGVMTISDSPREQDSESQTLDKVYQMKSKPRGYCLIINNHNFAKAREKVPKLHSIRDRNGTHLDAGALTTTFEELHFEIKPHDDCTVEQIYEILKIYQLMDHSNMDCFICCILSHGDKGIIYGTDGQEAPIYELTSQFTGLKCPSLAGKPKVFFIQAAQGDNYQKGIPVETASEEQPYLEMALSSPQTRYIPDEADFLLGMATVNNCVSYRNPAEGTWYIQSLCQSLRERCPRGDDILTILTEVNYEVSNKDDKKNMGKQMPQPTFTLRKKLVFPSD
notes: procaspase-8 (Casp-8), human, full length with FGLG mutations, catalytic inactivity and processing deficiencies; only the tDED is visible in the cryo-EM maps (protease domain not visible); The methods name E. coli BL21-CodonPlus only for FADD, the Casp-8 tDED mutant and cFLIP tDED; also called Casp-8^tDED molecules C8a, C8b, C8c (triple-FADD complex)
B4: full-length FADD H9G mutant (FADD^FuL_H9G) (natural protein)
chain: MDPFLVLLGSVSSSLSSSELTELKFLCLGRVGKRKLERVQSGLDLFSMLLEQNDLEPGHTELLRELLASLRRHDLLRRVDDFEAGAAAGAAPGEEDLCAAFNVICDNVGKDWRRLARQLKVSDTKIDSIEDRYPRNLTERVRESLRIWKNTEKENATVAHLVGALRSCQMNLVADLVQEVQQARDLQNRSGAMSPMSWNSDASTSEAS
notes: Fas-associated protein with death domain (FADD), human, full length, H9G; only the DED is visible in the crystal structure (FADD DD not visible); A selenomethionine-substituted complex was also made for phasing (PDB 8YD7); also called FADD^DED molecule FAl; source: E. coli BL21-CodonPlus, co-purified in the ternary complex (Ni-NTA, SEC); not shown: 6xHis, C-terminal, kept
B5: wild-type full-length FADD (FADD^FuL) (natural protein, human, UniProt Q13158 1-208, looked up)
chain: MDPFLVLLHSVSSSLSSSELTELKFLCLGRVGKRKLERVQSGLDLFSMLLEQNDLEPGHTELLRELLASLRRHDLLRRVDDFEAGAAAGAAPGEEDLCAAFNVICDNVGKDWRRLARQLKVSDTKIDSIEDRYPRNLTERVRESLRIWKNTEKENATVAHLVGALRSCQMNLVADLVQEVQQARDLQNRSGAMSPMSWNSDASTSEAS
notes: Fas-associated protein with death domain (FADD), human, wild type, full length; only the DED is visible in the cryo-EM maps; also called FA^FuL; WT FADD; source: E. coli BL21-CodonPlus; co-purified in the ternary complex (Ni-NTA, SEC); also in precipitates of overexpressed proteins resuspended in water; not shown: 6xHis, C-terminal, kept

The target of one data set is cFLIP^tDED H7G mutant (human, UniProt O15519 1-181, H7G). In words: crystal structure; FA^FuL_H9G-C8^FGLG-CF^H7G complex; proteins individually expressed in E. coli, complex co-purified by Ni-NTA and SEC (80 mM NaCl, 20 mM Tris pH 8.0); hanging drop, 20 °C; MR-SAD; 3.1 Å; one 1:5:4 complex per asymmetric unit; FADD DD not visible. As to conditions: both partners purified.

Data set [1] addresses B4. The description is as above. Particulars: both partners purified.
Data set [2] deals with B5. Kind of data set: negative-stain EM; C8^FGLG purified by SEC, in the presence of WT FADD with a C-terminal His-tag; FADD detected by Ni-NTA Nanogold; SDS-PAGE of the EM sample. Particulars: both partners purified.
Data set [3] deals with the molecule itself. In words: SEC + other: negative-stain EM; Casp-8^tDED_F122A and CF^H7G co-expressed; SEC profile, negative-stain EM and SDS-PAGE of the peak fractions.
In a further data set the target is wild-type cFLIP^tDED (human, UniProt O15519 1-181). In words: cryo-EM structure; FA^FuL-C8^FuL_FGLG_CADA-CF complex; Complex A without cross-linking (7.5 Å) and Complex B stabilised by GraFix, glutaraldehyde (3.7 Å); Casp-8 protease domain and FADD DD not visible. Particulars: both partners purified.
Data set [4] deals with the molecule itself. The data set is described as above.
The target of data set [5] is B3. The description is as above. As to conditions: both partners purified.

B1: Casp-8^tDED_F122G/L123G mutant (domain or fragment, human, UniProt Q14790 1-185, looked up)
chain: MDFSRNLYDIGEQLDSEDLASLKFLSLDYIPQRKQEPIKDALMLFQRLQEKRMLEESNLSFLKELLFRINRLDLLITYLNTRKEEMERELQTPGRAQISAYRVMLYQISEEVSRSELRSFKGGLQEEISKCKLDDDMNLLDIFIEMEKRVILGEGKLDILKRVCAQINKSLLKIINDYEEFSKER
notes: procaspase-8 (Casp-8) tandem DED, human, residues 1-185, F122G/L123G (FGLG) in the FL motif of DED2; The methods name no tag for this protein; also called C8^FGLG; source: E. coli BL21-CodonPlus; co-purified in the ternary complex (Ni-NTA, SEC); also purified alone by SEC
For B1, the binding result (with cFLIP^tDED H7G mutant; in data set [1]; in data set [2]) was “binds” each time.

B2: Casp-8^tDED F122A mutant (Casp-8^tDED_F122A) (domain or fragment, human, UniProt Q14790 1-185, looked up)
chain: MDFSRNLYDIGEQLDSEDLASLKFLSLDYIPQRKQEPIKDALMLFQRLQEKRMLEESNLSFLKELLFRINRLDLLITYLNTRKEEMERELQTPGRAQISAYRVMLYQISEEVSRSELRSFKALLQEEISKCKLDDDMNLLDIFIEMEKRVILGEGKLDILKRVCAQINKSLLKIINDYEEFSKER
notes: source: E. coli, co-expressed with CF^H7G, SEC
Take B2: the binding result in data set [3] was “binds”.
In the case of B3, the binding result with wild-type cFLIP^tDED is given as “binds”. Also, the “stoichiometry N” value in data set [4] is 3.
Regarding B4, the binding result in the data set with cFLIP^tDED H7G mutant is on record as “binds”.
For the molecule B5, the binding result in data set [5] is recorded as “binds”.
